Numbering of substitutions follows the chain as printed.
T1: cynomolgus monkey FcγRIIIaS extracellular domain with C-terminal His-tag (cynomolgus monkey, UniProt Q8SPW2 21-206 at identity 1.00))
T1 construct: Expressed in FreeStyle 293 cells and purified; also called cyno FcγRIIIaS; cynoFcγRIIIaS; not shown: C-terminal His-tag
T1 chain: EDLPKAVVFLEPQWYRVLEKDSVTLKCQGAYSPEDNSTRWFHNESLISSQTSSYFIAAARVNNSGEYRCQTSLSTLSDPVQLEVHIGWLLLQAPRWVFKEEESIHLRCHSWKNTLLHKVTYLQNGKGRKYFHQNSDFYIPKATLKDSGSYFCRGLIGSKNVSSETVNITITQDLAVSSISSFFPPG

T2: cynomolgus monkey FcγRIIa1 extracellular domain with C-terminal His-tag (cynomolgus monkey)
T2 construct: Expressed in FreeStyle 293 cells and purified; also called cyno FcγRIIa1; cynoFcgRIIa1; not shown: C-terminal His-tag
T2 chain: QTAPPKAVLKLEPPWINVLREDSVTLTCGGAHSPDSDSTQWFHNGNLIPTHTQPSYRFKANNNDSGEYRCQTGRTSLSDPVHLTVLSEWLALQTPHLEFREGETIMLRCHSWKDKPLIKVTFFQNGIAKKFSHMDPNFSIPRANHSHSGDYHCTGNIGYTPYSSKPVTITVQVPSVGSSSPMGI

T3: Mouse latent myostatin (mouse, UniProt O08689 26-267; O08689 268-376)
T3 construct: signal 1-24
T3 sequence 1: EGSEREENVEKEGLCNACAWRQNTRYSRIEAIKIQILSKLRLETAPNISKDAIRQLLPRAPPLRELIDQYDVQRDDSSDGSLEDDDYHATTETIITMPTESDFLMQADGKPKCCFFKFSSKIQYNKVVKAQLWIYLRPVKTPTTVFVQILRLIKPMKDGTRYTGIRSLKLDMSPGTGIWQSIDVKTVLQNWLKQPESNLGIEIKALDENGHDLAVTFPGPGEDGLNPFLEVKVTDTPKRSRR
T3 sequence 2: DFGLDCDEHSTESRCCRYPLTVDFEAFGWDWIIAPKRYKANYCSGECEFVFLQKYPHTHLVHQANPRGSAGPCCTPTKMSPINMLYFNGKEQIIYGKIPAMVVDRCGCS

T4: Human latent myostatin (human, UniProt O14793 25-266; O14793 267-375)
T4 construct: Biotinylated in the ELISAs; also called human myostatin latent form
T4 sequence 1: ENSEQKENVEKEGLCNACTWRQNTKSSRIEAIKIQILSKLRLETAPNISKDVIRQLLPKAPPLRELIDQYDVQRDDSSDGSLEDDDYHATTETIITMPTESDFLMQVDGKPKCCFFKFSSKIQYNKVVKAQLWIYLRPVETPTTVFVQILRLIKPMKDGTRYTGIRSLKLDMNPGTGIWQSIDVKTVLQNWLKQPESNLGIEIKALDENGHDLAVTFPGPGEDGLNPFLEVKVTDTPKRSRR
T4 sequence 2: T3 sequence 2

T5: Cynomolgus monkey latent myostatin (cynomolgus monkey, UniProt Q95J86 25-266; Q95J86 267-375)
T5 construct: signal 1-24; also called Cyno latent myostatin
T5 sequence 1: T4 sequence 1 with V52A
T5 sequence 2: T3 sequence 2

B1: M103205H795-MY172 / M103202L889-SK1 (antibody, human IgG1, kappa)
heavy: QVTLKESGPVLVKPTETLTLTCTVSGIDLSHDDISWVRQAPGKGLEWVGIISYAGSTYYASWAKGRLTISKDTSKNQVVLTMTNMDPVDTATYYCARGVPAYSHGGDLWGQGTLVTVSSASTKGPSVFPLAPSSKSTSGGTAALGCLVKDYFPEPVTVSWNSGALTSGVHTFPAVLQSSGLYSLSSVVTVPSSSLGTQTYICNVNHKPSNTKVDKKVEPKSCDKTHTCPPCPAPELLNGPSVFLFPPKPKDTLMISRTPEVTCVVVDVSEEDPEVKFNWYVDGVEVHNAKTKPREEQYNSTYRVVSVLTVLHQDWLNGKEYKCKVSNKALPAPIEKTISKAKGQPREPQVYTLPPSREEMTKNQVSLTCLVKGFYPSDIAVEWESNGQPENNYKTTPGVLDSDGSFFLYSKLTVDKSRWQQGNVFSCSVMHEALHNHYTQKSLSLSP
light: DIVMTQSPATLSLSPGERATLSCTSSQSVYHANWLSWFQQKPGQPPKLLIYWASTLAYGVPSRFSGSGSGTDFTLTISSLQPEDAATYYCAGGYGGGRYAFGQGTKVEIKRTVAAPSVFIFPPSDEQLKSGTASVVCLLNNFYPREAKVQWKVDNALQSGNSQESVTEQDSKDSTYSLSSTLTLSKADYEKHKVYACEVTHQGLSSPVTKSFNRGEC
notes: Position 396 variant derived from MY052, expressed with M103202L889-SK1 as light chain
B2: M103205H795-MY176 / M103202L889-SK1 (antibody, human IgG1, kappa)
heavy: B1 heavy with G398L
light: B1 light
notes: as for B1
B3: M103205H795-MY180 / M103202L889-SK1 (antibody, human IgG1, kappa)
heavy: B1 heavy with G398S
light: B1 light
notes: as for B1
B4: M103205H795-MY173 / M103202L889-SK1 (antibody, human IgG1, kappa)
heavy: B1 heavy with G398H
light: B1 light
notes: as for B1
B5: M103205H795-MY181 / M103202L889-SK1 (antibody, human IgG1, kappa)
heavy: B1 heavy with G398T
light: B1 light
notes: as for B1
B6: M103205H795-MY175 / M103202L889-SK1 (antibody, human IgG1, kappa)
heavy: B1 heavy with G398K
light: B1 light
notes: as for B1
B7: M103205H795-MY174 / M103202L889-SK1 (antibody, human IgG1, kappa)
heavy: B1 heavy with G398I
light: B1 light
notes: as for B1
B8: M103205H795-MY183 / M103202L889-SK1 (antibody, human IgG1, kappa)
heavy: B1 heavy with G398W
light: B1 light
notes: as for B1
B9: M103205H795-MY179 / M103202L889-SK1 (antibody, human IgG1, kappa)
heavy: B1 heavy with G398R
light: B1 light
notes: as for B1
B10: M103205H795-MY177 / M103202L889-SK1 (antibody, human IgG1, kappa)
heavy: B1 heavy with G398N
light: B1 light
notes: as for B1
B11: M103205H795-MY178 / M103202L889-SK1 (antibody, human IgG1, kappa)
heavy: B1 heavy with G398Q
light: B1 light
notes: as for B1
B12: M103205H795-MY182 / M103202L889-SK1 (antibody, human IgG1, kappa)
heavy: B1 heavy with G398V
light: B1 light
notes: as for B1
B13: M103205H795-MY184 / M103202L889-SK1 (antibody, human IgG1, kappa)
heavy: B1 heavy with G398Y
light: B1 light
notes: as for B1
B14: MS_M103205H000-SG1/M103202LO00-SK1 (antibody, human IgG1, kappa, V domains shown)
VH: QVTLKESGPVLVKPTETLTLTCTVSGIDLSSYDISWVRQAPGKGLEWVGIISYAGSTYYASWAKGRLTISKDTSKNQVVLTMTNMDPVDTATYYCARGVPAYSTGGDLWGQGTLVTVSS
VL: DIVMTQSPATLSLSPGERATLSCQSSQSVYDNNWLSWFQQKPGQPPKLLIYWASTLASGVPSRFSGSGSGTDFTLTISSLQPEDAATYYCAGGYGGGLYAFGQGTKVEIKR
notes: Humanized MST1032, not pH-dependent; also called MS1032LO00-SG1; Ab001

Target: T1, cynomolgus monkey FcγRIIIaS …
Test: SPR (Biacore); KD of SG1 divided by KD of the variant for this FcgR;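 also: relative to parent M103205H795-SG1 carrying the SG1 human heavy chain constant region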

KD fold (SG1 = 1) [fold] | Binder
0.11 | B1
0.16 | B2
0.12 | B3
0.12 | B4
0.09 | B5
0.14 | B6
0.14 | B7
0.1 | B8
0.13 | B9
0.12 | B10
0.12 | B11
0.1 | B12
0.11 | B13

Target: T2, cynomolgus monkey FcγRIIa1 …
Test: as above

KD fold (SG1 = 1) [fold] | Binder
1.2 | B1
2.5 | B2
1.2 | B3
1.9 | B4
1.4 | B5
2.3 | B6
2.1 | B7
1.5 | B8
1.7 | B9
1.7 | B10
1.6 | B11
1.5 | B12
1.7 | B13

Target: T3, Mouse latent myostatin
Test: SPR (BIACORE T200), 37 C, pH7.4, 1:1 fit; title prints avidity, by the text the affinity condition (capture 18.5 RU); pH 7.4
Protocol: (§1) The kinetic parameters of anti-latent myostatin antibodies against human, cynomolgus monkey (cyno), and mouse latent myostatin were assessed at 37° C. at pH7.4 using a BIACORE® T200 instrument (GE Healthcare). ProA/G (Pierce) was immobilized onto all flow cells of a CM4 chip using amine coupling kit (GE Healthcare). Anti-latent myostatin antibody and analytes were prepared in ACES pH7.4 (20 mM ACES, 150 mM NaCl, 1.2 mM CaCl₂), 0.05% TWEEN® 20, 0.005% NaN₃). […] Then human, cyno, or mouse latent myostatin was injected at 3.125 to 50 nM prepared by two-fold serial dilution, followed by dissociation. The sensor surface was regenerated with 25 mM NaOH. Kinetic parameters were determined by processing and fitting the data to a 1:1 binding model using BIACORE® T200 Evaluation software, version 2.0 (GE Healthcare).
(§2) All experimental settings were the same as in Example 7, except that measurements were also performed in ACES pH5.8 buffer in addition to ACES pH7.4 condition. Some antibodies were only measured against human latent myostatin. Antibody capture level was aimed at 185 RU and 18.5 RU, for avidity and affinity assay, respectively. Kinetic parameters were determined using 1:1 Binding fitting using BIACORE® T200 Evaluation software, version 2.0 (GE Healthcare).

Kd [nM] | koff [s⁻¹] | kon [M⁻¹ s⁻¹] | Binder
0.122 | 0.00016 | 1.31e+06 | B14

Target: T4, Human latent myostatin
Test: as above
Protocol: as §1, §2

Kd [nM] | koff [s⁻¹] | kon [M⁻¹ s⁻¹] | Binder
0.23 | 0.000245 | 1.07e+06 | B14

Target: T5, Cynomolgus monkey latent myostatin
Test: as above
Protocol: as §1, §2

Kd [nM] | koff [s⁻¹] | kon [M⁻¹ s⁻¹] | Binder
0.209 | 0.000213 | 1.02e+06 | B14

From US20200317768A1 (published 2020)
